Source: paper PMC7542595
Read-outs that look alike come from different tables or passages of the source. One block for each molecule: values may come before it.

How the values were obtained:
Assay in all cases: fluorescence polarisation
[1] = molecular target: ERα-ctp (1), N-fluorescein-labeled C-terminal hexaphosphopeptide of ERα
[2] = molecular target: GpIBα-ctp (3), N-fluorescein-labeled C-terminal hexaphosphopeptide of GpIBα
[3] = molecular target: Task3-ctp (2), N-fluorescein-labeled C-terminal hexaphosphopeptide of Task3
[4] = molecular target: GpIBα-ctp (3), N-fluorescein-labeled C-terminal hexaphosphopeptide of GpIBα; remark: listed apart in the source
[5] = molecular target: Task3-ctp (2), N-fluorescein-labeled C-terminal hexaphosphopeptide of Task3; remark: listed apart in the source
[6] = molecular target: ERα-ctp (1), N-fluorescein-labeled C-terminal hexaphosphopeptide of ERα; remark: listed apart in the source

Kd [1]: 1500 nM | Kd [2]: 20000 nM | Kd [3]: 1300 nM
Molecule: human 14-3-3ζ (from UniProt P63104 1-245) (natural protein)

Kd [1]: 720 nM | Kd [2]: 18000 nM | Kd [3]: 2400 nM | Kd [4]: 870 nM
Molecule: human 14-3-3β (from UniProt P31946 1-246) (natural protein)

Kd [1]: 3400 nM | Kd [2]: 28000 nM | Kd [3]: 6000 nM | Kd [4]: 1700 nM | Kd [5]: 160 nM
Molecule: human 14-3-3ε (from UniProt P62258 1-255) (natural protein)

Kd [1]: 6600 nM | Kd [2]: 47000 nM | Kd [3]: 2100 nM
B1: human 14-3-3σ (natural protein)
chain: MERASLIQKAKLAEQAERYEDMAAFMKGAVEKGEELSCEERNLLSVAYKNVVGGQRAAWRVLSSIEQKSNEEGSEEKGPEVREYREKVETELQGVCDTVLGLLDSHLIKEAGDAESRVFYLKMKGDYYRYLAEVATGDDKKRIIDSARSAYQEAMDISKKEMPPTNPIRLGLALNFSVFHYEIANSPEEAISLAKTTFDEAMADLHTLSEDSYKDSTLIMQLLRDNLTLWTADNAGEEGGEAPQEPQS

Kd [1]: 1100 nM | Kd [2]: 20000 nM | Kd [3]: 2200 nM | Kd [6]: 130 nM
B2: human 14-3-3τ (natural protein)
chain: MEKTELIQKAKLAEQAERYDDMATCMKAVTEQGAELSNEERNLLSVAYKNVVGGRRSAWRVISSIEQKTDTSDKKLQLIKDYREKVESELRSICTTVLELLDKYLIANATNPESKVFYLKMKGDYFRYLAEVACGDDRKQTIDNSQGAYQEAFDISKKEMQPTHPIRLGLALNFSVFYYEILNNPELACTLAKTAFDEAIAELDTLNEDSYKDSTLIMQLLRDNLTLWTSDSAGEECDAAEGAEN
